# Measured values from the RNAGym collection of RNA variant scans (doi:10.1101/gr.219683.116).
# B1: mRNA-splicing (parent)
# chain: AGUUGCUGCUGGGAGCUCCAGCACAGUGAAAUGGACAGAAGGGCAGAGCAA
# Variants of: B1
# Assay: exon inclusion enrichment index; higher = more inclusion; WT1 exon 5 minigene, HEK293
row,Variant,exon inclusion enrichment index
1,AGUUGCUGCUGGGAGCUCCAGCACAGUCUAAUGGACAGAAGGGCAGAGCAA,0.0556
2,AGUUGCUGCUGGGAGCUCCAGCACAGUUAAAUGGACAGAAGGGCAGAGCAA,0.0227
3,AGUUGCUGCUGGGAGCUCCAGCACAGUUCAAUGGACAGAAGGGCAGAGCAA,0.0665
4,AGUUGCUGCUGGGAGCUCCAGCACAGUUGAAUGGACAGAAGGGCAGAGCAA,0.0875
5,AGUUGCUGCUGGGAGCUCCAGCACAGUUUAAUGGACAGAAGGGCAGAGCAA,0.00946
6,AGUUGCUGCUGGGAGCUCCAGCACAGUGCAAUGGACAGAAGGGCAGAGCAA,0.0903
7,AGUUGCUGCUGGGAGCUCCAGCACAGUGCCAUGGACAGAAGGGCAGAGCAA,0.418
8,AGUUGCUGCUGGGAGCUCCAGCACAGUGCGAUGGACAGAAGGGCAGAGCAA,0.677
9,AGUUGCUGCUGGGAGCUCCAGCACAGUGCUAUGGACAGAAGGGCAGAGCAA,0.0782
10,AGUUGCUGCUGGGAGCUCCAGCACAGUGGAAUGGACAGAAGGGCAGAGCAA,0.272
11,AGUUGCUGCUGGGAGCUCCAGCACAGUGGCAUGGACAGAAGGGCAGAGCAA,0.0218
12,AGUUGCUGCUGGGAGCUCCAGCACAGUGGGAUGGACAGAAGGGCAGAGCAA,0.114
13,AGUUGCUGCUGGGAGCUCCAGCACAGUGGUAUGGACAGAAGGGCAGAGCAA,0.0289
14,AGUUGCUGCUGGGAGCUCCAGCACAGUGUAAUGGACAGAAGGGCAGAGCAA,0.0295
15,AGUUGCUGCUGGGAGCUCCAGCACAGUGUCAUGGACAGAAGGGCAGAGCAA,0.119
16,AGUUGCUGCUGGGAGCUCCAGCACAGUGUGAUGGACAGAAGGGCAGAGCAA,0.237
17,AGUUGCUGCUGGGAGCUCCAGCACAGUGUUAUGGACAGAAGGGCAGAGCAA,0.0389
18,AGUUGCUGCUGGGAGCUCCAGCACAGUGACAUGGACAGAAGGGCAGAGCAA,0.184
19,AGUUGCUGCUGGGAGCUCCAGCACAGUGACCUGGACAGAAGGGCAGAGCAA,0.337
20,AGUUGCUGCUGGGAGCUCCAGCACAGUGACGUGGACAGAAGGGCAGAGCAA,0.41
21,AGUUGCUGCUGGGAGCUCCAGCACAGUGACUUGGACAGAAGGGCAGAGCAA,0.103
22,AGUUGCUGCUGGGAGCUCCAGCACAGUGAGAUGGACAGAAGGGCAGAGCAA,0.182
23,AGUUGCUGCUGGGAGCUCCAGCACAGUGAGCUGGACAGAAGGGCAGAGCAA,0.126
24,AGUUGCUGCUGGGAGCUCCAGCACAGUGAGGUGGACAGAAGGGCAGAGCAA,0.0117
25,AGUUGCUGCUGGGAGCUCCAGCACAGUGAGUUGGACAGAAGGGCAGAGCAA,0.0224
26,AGUUGCUGCUGGGAGCUCCAGCACAGUGAUAUGGACAGAAGGGCAGAGCAA,0.0645

row,Variant,exon inclusion enrichment index
1,AGUUGCUGCUGGGAGCUCCAGCACAGUGAUCUGGACAGAAGGGCAGAGCAA,0.202
2,AGUUGCUGCUGGGAGCUCCAGCACAGUGAUGUGGACAGAAGGGCAGAGCAA,0.155
3,AGUUGCUGCUGGGAGCUCCAGCACAGUGAUUUGGACAGAAGGGCAGAGCAA,0.087
4,AGUUGCUGCUGGGAGCUCCAGCACAGUGAACUGGACAGAAGGGCAGAGCAA,0.288
5,AGUUGCUGCUGGGAGCUCCAGCACAGUGAACAGGACAGAAGGGCAGAGCAA,0.0661
6,AGUUGCUGCUGGGAGCUCCAGCACAGUGAACCGGACAGAAGGGCAGAGCAA,0.643
7,AGUUGCUGCUGGGAGCUCCAGCACAGUGAACGGGACAGAAGGGCAGAGCAA,0.373
8,AGUUGCUGCUGGGAGCUCCAGCACAGUGAAGUGGACAGAAGGGCAGAGCAA,0.255
9,AGUUGCUGCUGGGAGCUCCAGCACAGUGAAGAGGACAGAAGGGCAGAGCAA,1.08
10,AGUUGCUGCUGGGAGCUCCAGCACAGUGAAGCGGACAGAAGGGCAGAGCAA,0.99
11,AGUUGCUGCUGGGAGCUCCAGCACAGUGAAGGGGACAGAAGGGCAGAGCAA,0.104
12,AGUUGCUGCUGGGAGCUCCAGCACAGUGAAUUGGACAGAAGGGCAGAGCAA,0.159
13,AGUUGCUGCUGGGAGCUCCAGCACAGUGAAUAGGACAGAAGGGCAGAGCAA,0.00762
14,AGUUGCUGCUGGGAGCUCCAGCACAGUGAAUCGGACAGAAGGGCAGAGCAA,0.301
15,AGUUGCUGCUGGGAGCUCCAGCACAGUGAAUGGGACAGAAGGGCAGAGCAA,0.056
16,AGUUGCUGCUGGGAGCUCCAGCACAGUGAAAAGGACAGAAGGGCAGAGCAA,0.107
17,AGUUGCUGCUGGGAGCUCCAGCACAGUGAAAAAGACAGAAGGGCAGAGCAA,0.0558
18,AGUUGCUGCUGGGAGCUCCAGCACAGUGAAAACGACAGAAGGGCAGAGCAA,0.181
19,AGUUGCUGCUGGGAGCUCCAGCACAGUGAAAAUGACAGAAGGGCAGAGCAA,0.0657
20,AGUUGCUGCUGGGAGCUCCAGCACAGUGAAACGGACAGAAGGGCAGAGCAA,0.336
21,AGUUGCUGCUGGGAGCUCCAGCACAGUGAAACAGACAGAAGGGCAGAGCAA,0.0354
22,AGUUGCUGCUGGGAGCUCCAGCACAGUGAAACCGACAGAAGGGCAGAGCAA,0.303
23,AGUUGCUGCUGGGAGCUCCAGCACAGUGAAACUGACAGAAGGGCAGAGCAA,0.0526
24,AGUUGCUGCUGGGAGCUCCAGCACAGUGAAAGGGACAGAAGGGCAGAGCAA,0.0106
25,AGUUGCUGCUGGGAGCUCCAGCACAGUGAAAGAGACAGAAGGGCAGAGCAA,0.042
